In patent US20220119492A1 (MEDIKINE, published 2022):
One block for each binder: values may come before it. Bridge positions count the residues as written; N and C are the ends. Ends that are not written are not given here.

Target: T1, human IL-2Rβ (CD122 protein, Fc Tag) (27-239) (human, UniProt P14784 27-239)
T1 construct: range 27-239; Bought protein; also called hu-IL-2Rβ subunit; IL-2Rβ subunit; not shown: Fc tag of the bought protein
T1 sequence (looked up): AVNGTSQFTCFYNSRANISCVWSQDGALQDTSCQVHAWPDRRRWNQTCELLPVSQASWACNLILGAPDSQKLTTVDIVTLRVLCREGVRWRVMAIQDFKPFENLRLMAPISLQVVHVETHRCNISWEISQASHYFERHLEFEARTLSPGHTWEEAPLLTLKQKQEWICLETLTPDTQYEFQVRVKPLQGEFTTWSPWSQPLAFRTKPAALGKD
Test: phage ELISA competition
In short: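 IC50 comes from absorbance measured across a dilution series of ligand in a competitive binding ELISA against human IL-2Rβ-Fc, with a phage tracer as the competitor. The phage tracer (50 μL) was added with no wash step for 45 min at 4° C. Detection of bound phage used TMB for 1 to 15 min at 25° C, then stop solution and a reading at 450 nm.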

- IC50: < 100 µM
B3: SEQ ID NO 2744 (peptide)
peptide: VASERFYPCWIARLGELCDVE

- IC50: < 100 µM
B5: SEQ ID NO 2736 (peptide)
peptide: MTDRAFWNPCWVARLGELCDLD

- IC50: < 100 µM
B6: SEQ ID NO 2730 (peptide)
peptide: LGSKRQWYPCWVAHLGELCDLE

- IC50: < 100 µM
B7: SEQ ID NO 2722 (peptide)
peptide: WHPCWMAQVGEVCDLD

- IC50: < 100 µM
B8: SEQ ID NO 2732 (peptide)
peptide: RWTQAQWYPCWLAQLGELCDLE

- IC50: < 100 µM
B9: SEQ ID NO 2723 (peptide)
peptide: WYPCWLASLGEVCDLE

- IC50: < 100 µM
B11: SEQ ID NO 2729 (peptide)
peptide: EEQSRGFLPCWMALLGELCDLD

- IC50: < 100 µM
B12: SEQ ID NO 2731 (peptide)
peptide: ESEGRGWYPCWNALLGELCDLE

- IC50: < 100 µM
B15: SEQ ID NO 2734 (peptide)
peptide: LSSKGWYPCWKARLGDLCDLE
modifications: disulfide 9-18 (inferred)

- IC50: < 100 µM
B19: SEQ ID NO 2741 (peptide)
peptide: YLERSRWYPCFIAQLGELCDLE

- IC50: < 100 µM
B21: SEQ ID NO 2747 (peptide)
peptide: WYPCWRAQLGELCDLVDLGSHL

- IC50: < 100 µM
B23: SEQ ID NO 2733 (peptide)
peptide: LHAGRWNPCWLAQLGELCDLE

- IC50: < 100 µM
B26: SEQ ID NO 2749 (peptide)
peptide: WTPCWIAQLGELCDLEGRHGTV

- IC50: < 100 µM
B27: SEQ ID NO 2728 (peptide)
peptide: RYPCWRAKLGELCDLD

- IC50: < 100 µM
B28: SEQ ID NO 2748 (peptide)
peptide: WSPCWMASLGDLCDLEETRQTE
modifications: disulfide 4-13 (inferred)

- IC50: < 100 µM
B29: SEQ ID NO 2724 (peptide)
peptide: WWPCSIARLGQLCDLD

- IC50: < 100 µM
B31: SEQ ID NO 2746 (peptide)
peptide: WYPCWLAHLGELCDLDWKGRND

- IC50: < 100 µM
B32: SEQ ID NO 2750 (peptide)
peptide: LPCWIAQLGDLCDLEPEPSPE

- IC50: < 100 µM
B33: SEQ ID NO 2751 (peptide)
peptide: FYPCWAAHLGDLCDLEYQEAGP

- IC50: < 100 µM
B34: SEQ ID NO 2742 (peptide)
peptide: FRVSRDWFPCWMAQLGEVCDLE

- IC50: < 100 µM
B37: SEQ ID NO 2752 (peptide)
peptide: WLPCWLAPLGDLCDMDMSAVMN

- IC50: < 100 µM
B40: SEQ ID NO 2740 (peptide)
peptide: ARGEYRWFPCWMARLGELCDLE

- IC50: < 100 µM
B41: SEQ ID NO 2726 (peptide)
peptide: WYPCWLAQLGELCDAE

- IC50: < 100 µM
B42: SEQ ID NO 2735 (peptide)
peptide: DMFTHRWYPCSMAKLGELCDLE

- IC50: < 100 µM
B46: SEQ ID NO 2743 (peptide)
peptide: IERAWEWRPCWLASVGELCDLE
modifications: disulfide 10-19 (inferred)

- IC50: < 100 µM
B47: SEQ ID NO 2737 (peptide)
peptide: NVTYTQWFPCWLARLGELCDLV
modifications: disulfide 10-19 (inferred)

- IC50: < 100 µM
B48: SEQ ID NO 2727 (peptide)
peptide: WKPCWMALLGELCDLE

- IC50: < 100 µM
B49: SEQ ID NO 2739 (peptide)
peptide: AMARRYLPCWIAKLGELCELD

Further lines, the binder ahead of its results:

B1: SEQ ID NO 2719 (peptide)
peptide: MYPCWIAHLGELCDLD
- IC50: < 100 µM

B2: SEQ ID NO 2713 (peptide)
peptide: SGTGPAWYPCFLASLGQLCDLE
- IC50: < 100 µM

B4: SEQ ID NO 2709 (peptide)
peptide: WLPCWMADVGDLCDLD
modifications: disulfide 4-13 (inferred)
- IC50: < 100 µM

B10: SEQ ID NO 2703 (peptide)
peptide: SATWYPCFLANLGELCDLEQEN
- IC50: < 100 µM

B13: SEQ ID NO 2701 (peptide)
peptide: WYPCWMAQLGELCDLDEAPVQP
- IC50: < 100 µM

B14: SEQ ID NO 2721 (peptide)
peptide: WLPCYMAQLGDLCDLE
- IC50: < 100 µM

B16: SEQ ID NO 2704 (peptide)
peptide: YAEWYPCWMARVGEVCDLEVTP
- IC50: < 100 µM

B17: SEQ ID NO 2706 (peptide)
peptide: WYPCWMAQLGELCDMD
- IC50: < 100 µM

B18: SEQ ID NO 2710 (peptide)
peptide: WHPCWMARLGELCDLD
- IC50: < 100 µM

B20: SEQ ID NO 2707 (peptide)
peptide: RVSYPCWLARLGELCDMDLEE
- IC50: < 100 µM

B22: SEQ ID NO 2705 (peptide)
peptide: RSGDKAFFPCWLAQLGDLCDLD
- IC50: < 100 µM

B24: SEQ ID NO 2720 (peptide)
peptide: WYPCSIASLGELCDLE
- IC50: < 100 µM

B25: SEQ ID NO 2716 (peptide)
peptide: LFPCWLAQLGELCDLE
- IC50: < 100 µM

B30: SEQ ID NO 2711 (peptide)
peptide: QGTKWHWNPCWMAQLGELCDLD
modifications: disulfide 10-19 (inferred)
- IC50: < 100 µM

B35: SEQ ID NO 2712 (peptide)
peptide: KNGPKSWYPCWMAQVGDLCDLD
- IC50: < 100 µM

B36: SEQ ID NO 2715 (peptide)
peptide: WLPCWRAQLGQLCDLD
- IC50: < 100 µM

B38: SEQ ID NO 2708 (peptide)
peptide: TESWYPCWLANLGDLCDLEWSA
modifications: disulfide 7-16 (inferred)
- IC50: < 100 µM

B39: SEQ ID NO 2702 (peptide)
peptide: RDIWWPCWVAQLGELCDLDDPQ
- IC50: < 100 µM

B43: SEQ ID NO 2700 (peptide)
peptide: QVMRLWYPCWMAQLGELCDLE
- IC50: < 100 µM

B44: SEQ ID NO 2714 (peptide)
peptide: WYPCWMARMGELCDLE
- IC50: < 100 µM

B45: SEQ ID NO 2717 (peptide)
peptide: RYPCWIAQLGELCDLD
- IC50: < 100 µM
